Experimental data published in the supplement of paper PMC7877785.
± gives the uncertainty stated by the source.

Experiment: self-splicing fitness, log relative to wild type (ln ratio); higher = more splicing; Tetrahymena group I intron in knt gene, E. coli kanamycin selection, DiMSum; sequences stand for … in CUCUCU…GGAGGGAAAAGUUAUCAGGCAUGCACCUGGUAGCUAGUCUUUAAACCAAUAGAUUGCAUCGGUUUAAAAGGCAAGACCGUCAAAUUGCGGGAAAGGGGUCAACAGCCGUUCAGUACCAAGUCUCAGGGGAAACUUUGAGAUGGCCUUGCAAAGGGUAUGGUAAUAAGCUGACGGACAUGGUCCUAACCACGCAGCCAAGUCCUAAGUCAACAGAUCUUCUGUUGAUAUGGAUGCAGUUCACAGACUAAAUGUCGGUCGGGGAAGAUGUAUUCUUCUCAUAAGAUAUAGUCGGACCUCUCCUUAAUGGGAGCUAGCGGAUGAAGUGAUGCAACACUGGAGCCGCUGGGAACUAAUUUGUAUGCGAAAGUAUAUUGAUUAGUUUUGGAGUACUCGUGGUCG
Outline: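 Colonies from six replicate transformations of E. coli BL21(DE3) were pooled and amplicon-sequenced on an Illumina HiSeq 2500. The library placed an intron with all eight P1ex-region nucleotides randomised inside the knt kanamycin-resistance gene on pET-22b(+), and cells grew overnight at 37°C or 30°C on LB agar with or without 25 μg/mL kanamycin (plus 100 μg/mL carbenicillin, 50 μM IPTG, 0.2% rhamnose). Fitness is the DiMSum error-weighted combination of wild-type-normalised replicate fold changes, kanamycin versus none.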

| Sequence | self-splicing fitness (ln) (30 °C) | self-splicing fitness (ln) (37 °C) |
| --- | --- | --- |
| ACAUAGCAAUAUUACGAGUG | -1.16 ± 0.073 | -1.05 ± 0.09 |
| AUACAGCAAUAUUACGCUCA | -0.776 ± 0.069 | 0.318 ± 0.086 |
| UACUAGCAAUAUUACGUUUU | -3.49 ± 0.19 | -1.82 ± 0.15 |
| CCGUAGCAAUAUUACGGAAC | -3.54 ± 0.41 | -2.13 ± 0.43 |
| AUACAGCAAUAUUACGCAAA | -2.45 ± 0.21 | -1.07 ± 0.18 |
| GUUGAGCAAUAUUACGUAGG | -3.49 ± 0.22 | -2.93 ± 0.37 |
| UUUUAGCAAUAUUACGUAUA | -2.59 ± 0.42 |  |
| UACAAGCAAUAUUACGAGCC | -2.24 ± 0.48 |  |
| UCUUAGCAAUAUUACGGCAU | -3.42 ± 0.33 | -1.75 ± 0.23 |
| CGCAAGCAAUAUUACGUAUU | -3.08 ± 0.21 | -3.5 ± 0.35 |
| CGCGAGCAAUAUUACGCACU | -2.58 ± 0.13 | -1.51 ± 0.13 |
| CUUCAGCAAUAUUACGUUCC | -2.64 ± 0.43 | -1.71 ± 0.36 |
| UCAAAGCAAUAUUACGGUGC | -3.92 ± 0.42 | -1.94 ± 0.39 |
| UGGAAGCAAUAUUACGCCUA | 0.049 ± 0.092 | -0.109 ± 0.12 |
| AUUAAGCAAUAUUACGUGGA | -3.32 ± 0.2 | -1.05 ± 0.12 |
| AGAGAGCAAUAUUACGACCG | -2.92 ± 0.4 |  |
| CAAGAGCAAUAUUACGGUUC | -3.57 ± 0.24 | -2.34 ± 0.25 |
| UUGUAGCAAUAUUACGUACA | -1.51 ± 0.2 | -0.822 ± 0.17 |
| CGUGAGCAAUAUUACGAUCA | -2.06 ± 0.14 | -0.309 ± 0.12 |
| ACUGAGCAAUAUUACGAUAC | -1.07 ± 0.29 | -1.96 ± 0.33 |
| GGCGAGCAAUAUUACGCGUU | -2.26 ± 0.24 | -1.94 ± 0.3 |
| UAUAAGCAAUAUUACGUACU | -1.69 ± 0.16 | -0.993 ± 0.11 |
| AGUGAGCAAUAUUACGUAUU | -3.27 ± 0.25 | -2.23 ± 0.31 |
| CCUCAGCAAUAUUACGCCUU | -3.95 ± 0.3 | -2.17 ± 0.22 |
| CUAGAGCAAUAUUACGUGAG | -0.395 ± 0.074 | 0.0704 ± 0.095 |

| Sequence | self-splicing fitness (ln) (30 °C) | self-splicing fitness (ln) (37 °C) |
| --- | --- | --- |
| UUCAAGCAAUAUUACGUGUA | -1.11 ± 0.056 | -0.453 ± 0.059 |
| CGAUAGCAAUAUUACGUUAA | -3.59 ± 0.21 | -1.15 ± 0.16 |
| UUGCAGCAAUAUUACGCUGU | -2.71 ± 0.35 | -1.23 ± 0.32 |
| UAUUAGCAAUAUUACGUCCA | -0.691 ± 0.11 | -0.00937 ± 0.15 |
| AUCCAGCAAUAUUACGAUCG | -2.6 ± 0.2 | -3.02 ± 0.37 |
| UAUGAGCAAUAUUACGCUCU | -3.16 ± 0.41 |  |
| GGAUAGCAAUAUUACGACCA | -0.97 ± 0.092 | -0.392 ± 0.13 |
| CGAUAGCAAUAUUACGUUAC | -3.47 ± 0.28 | -2.17 ± 0.2 |
| GCUCAGCAAUAUUACGACCG | -1.52 ± 0.17 | -0.109 ± 0.17 |
| GAAAAGCAAUAUUACGCGUA | -1.27 ± 0.11 | -1.15 ± 0.11 |
| UCCGAGCAAUAUUACGCGCA | -0.129 ± 0.15 | -0.252 ± 0.14 |
| UUUCAGCAAUAUUACGUCGA | -1.11 ± 0.11 | -1.25 ± 0.12 |
| GGGGAGCAAUAUUACGCAAU |  | -1.66 ± 0.48 |
| GCCCAGCAAUAUUACGUUGA | -1.72 ± 0.11 | -1.25 ± 0.12 |
| CUACAGCAAUAUUACGGAUG | -0.683 ± 0.056 | -0.187 ± 0.076 |
| UGUAAGCAAUAUUACGCUAG | -1.82 ± 0.1 | -0.0644 ± 0.099 |
| GCACAGCAAUAUUACGUAUA | -0.999 ± 0.06 | -0.413 ± 0.07 |
| AAGGAGCAAUAUUACGUCUG | -1.18 ± 0.15 | -0.52 ± 0.27 |
| CCACAGCAAUAUUACGCCCG | -0.882 ± 0.078 | -0.0155 ± 0.09 |
| CCCUAGCAAUAUUACGUUUG | -3.93 ± 0.16 | -2.79 ± 0.18 |
| CGCCAGCAAUAUUACGUAGG | -2.47 ± 0.085 | -1.32 ± 0.1 |
| CCACAGCAAUAUUACGUACA | -2.84 ± 0.19 | -2.96 ± 0.34 |
| AUUAAGCAAUAUUACGUCAA | -2.1 ± 0.22 | -0.766 ± 0.16 |
| UAAUAGCAAUAUUACGAUUA | -1.04 ± 0.13 | 0.0261 ± 0.14 |
